Experimental data published in the supplement of paper PMC10724198.
± gives the standard deviation of the averaged measurements.

System: Saccharomyces cerevisiae
Assay: protein stability index of tFT-peptide fusion (C-terminal peptide) (PSI (0-1 scale)); higher = more stable (slower turnover)
Details: genetic background: wild type; temperature: 30 C
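Also: PSI is a weighted mean of sequencing reads over stability bins, variants kept only with over 10 reads, mCherry proximal and sfGFP distal, peptide attached via GGGS linker.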

VPFQEGHVKRFL and VPGRSPTKSTVS are within error of each other in protein stability index: 0.665 ± 0.019 for the first, 0.66808 ± 0.00013 for the second.

First: VPGWRVGGARSV
Second: VPLFLVPGLSAV
The protein stability index of the first is higher: 0.746 ± 0.048 for the first, 0.602 ± 0.0083 for the second.

VPLGFPPPPLDP and VPLRGPAPPRPR are within error of each other in protein stability index: 0.727 ± 0.038 for the first, 0.739 ± 0.035 for the second.

VPLRPFFPTLFP and VPLSPVSSGAPD are within error of each other in protein stability index: 0.712 ± 0.063 for the first, 0.66 ± 0.04 for the second.

Compared with VPPHLLAPDPRL, VPPLRPVAPCRG is lower in protein stability index: 0.7158 ± 0.0066 for the first, 0.533 ± 0.014 for the second.

VPPLVSSSSLLL and VPPPLRLWPLPV are within error of each other in protein stability index: 0.636 ± 0.082 for the first, 0.618 ± 0.076 for the second.

VPPPPPRLKRFA and VPPPRLPQPLFP are within error of each other in protein stability index: 0.639 ± 0.035 for the first, 0.717 ± 0.052 for the second.

VPRCLPVGLLFF and VPRPFILTATSE are within error of each other in protein stability index: 0.71 ± 0.19 for the first, 0.675 ± 0.084 for the second.

VPRRSLLSPPPP and VQGSRKGSRERW are within error of each other in protein stability index: 0.668 ± 0.023 for the first, 0.683 ± 0.065 for the second.

VQLHIDVRSFLF and VQTIKPVPSGLR are within error of each other in protein stability index: 0.67 ± 0.014 for the first, 0.622 ± 0.078 for the second.

First: VQVRPVVTVPSK
Second: VQWTEFYWVRKG
The protein stability index of the first is higher: 0.7 ± 0.068 for the first, 0.575 ± 0.037 for the second.

Compared with VRALGRDGIRQC, VRCCFGGRGGIA is higher in protein stability index: 0.602 ± 0.015 for the first, 0.653 ± 0.0079 for the second.

First: VRCGGPGRAGKG
Second: VRDRVLFVARGG
The protein stability index of the first is lower: 0.63 ± 0.052 for the first, 0.6996 ± 0.00075 for the second.

First: VRFVVRSVSSFV
Second: VRFVVRVFQCSF
The protein stability index of the first is higher: 0.5973 ± 0.0014 for the first, 0.466 ± 0.052 for the second.

VRGFFTLSGNLI and VRGKGWRGGWWG are within error of each other in protein stability index: 0.716 ± 0.072 for the first, 0.682 ± 0.031 for the second.

VRGLGRLSRAEV and VRGRGRQDVDGG are within error of each other in protein stability index: 0.77 ± 0.014 for the first, 0.699 ± 0.11 for the second.

Compared with VRGRGVYRIDKV, VRLIGVSVGALE is lower in protein stability index: 0.716 ± 0.018 for the first, 0.579 ± 0.068 for the second.

VRLLAESWEGGR and VRPEPSTGARGA are within error of each other in protein stability index: 0.702 ± 0.017 for the first, 0.669 ± 0.049 for the second.

First: VRPFTLLSSYSV
Second: VRPREWMIPFEC
The protein stability index of the first is lower: 0.644 ± 0.028 for the first, 0.709 ± 0.012 for the second.

VRRRRVPSEATR and VRSDHSGLEILG are within error of each other in protein stability index: 0.667 ± 0.044 for the first, 0.782 ± 0.11 for the second.

First: VRVECGVWGSVS
Second: VRVEGQCWMGRI
The protein stability index of the first is lower: 0.65806 ± 0.00012 for the first, 0.679 ± 0.017 for the second.

VRVGRGGKELND and VRVKRAGGGGVG are within error of each other in protein stability index: 0.576 ± 0.11 for the first, 0.591 ± 0.028 for the second.

VRVVGVSGGEGG and VRVVPPQPELSP are within error of each other in protein stability index: 0.644 ± 0.027 for the first, 0.648 ± 0.051 for the second.

VRVYLSQNSRFG and VRWGLLLSCLRS are within error of each other in protein stability index: 0.723 ± 0.066 for the first, 0.666 ± 0.03 for the second.

Compared with VRWSEVGMGVWR, VSAFLPLFLLTP is lower in protein stability index: 0.708 ± 0.014 for the first, 0.601 ± 0.055 for the second.

First: VSCNRGAYVRSR
Second: VSFAGSPVPSSS
The protein stability index of the first is lower: 0.6776 ± 0.0053 for the first, 0.716 ± 0.0095 for the second.

VSFCDVEVRFFV and VSFWSVFSWLSG are within error of each other in protein stability index: 0.619 ± 0.066 for the first, 0.665 ± 0.014 for the second.

VSGCPVVFRSYC and VSGDRFKRHESV are within error of each other in protein stability index: 0.693 ± 0.024 for the first, 0.695 ± 0.027 for the second.

VSGFVILDSTCP and VSIMRLGSCRQD are within error of each other in protein stability index: 0.671 ± 0.025 for the first, 0.702 ± 0.033 for the second.

VSLLCFCFGCVL and VSLPMAPPPLDG are within error of each other in protein stability index: 0.604 ± 0.022 for the first, 0.616 ± 0.013 for the second.

Compared with VSLVVGTGEWGA, VSLYRRFLGVYS is lower in protein stability index: 0.762 ± 0.17 for the first, 0.532 ± 0.011 for the second.

VSPGYWGPAPLC and VSPPPRFPLLPS are within error of each other in protein stability index: 0.682 ± 0.016 for the first, 0.669 ± 0.03 for the second.

VSPRYRDRPGPS and VSPSPLDHPFHV are within error of each other in protein stability index: 0.692 ± 0.015 for the first, 0.684 ± 0.021 for the second.

Going from VSSVTFSLSFAL to VSSWNALCVEGM, the protein stability index falls from 0.813 ± 0.082 to 0.649 ± 0.0073.

Going from VSTRVAVESPLG to VSVGRSSARVIG, the protein stability index rises from 0.656 ± 0.03 to 0.725 ± 0.02.

VSVSERVGNMLP and VTCRALTFSLLG are within error of each other in protein stability index: 0.679 ± 0.035 for the first, 0.635 ± 0.12 for the second.

VTDTSCRAEVEQ and VTEGVGGGKGRG are within error of each other in protein stability index: 0.701 ± 0.059 for the first, 0.597 ± 0.056 for the second.

VTFPSAHSSRRF and VTIFAGIGQFWF are within error of each other in protein stability index: 0.71635 ± 0.00041 for the first, 0.706 ± 0.021 for the second.

VTKRSKKNPTNN and VTREEALICSQP are within error of each other in protein stability index: 0.691 ± 0.018 for the first, 0.811 ± 0.13 for the second.

First: VTSVCGYVRIWW
Second: VTVLFFLGPSLL
The protein stability index of the first is higher: 0.71 ± 0.047 for the first, 0.575 ± 0.013 for the second.

In the case of VVAAGGASDVGG, the protein stability index is reported as 0.712 ± 0.056.
